In patent US6703198:

Target: full-length murine Notch1 expressed on 32D myeloid progenitor cells (murine) (UniProt Q01705)
Experiment: cell-based or functional assay

full-length murine Notch1 expressed on 32D myeloid progenitor cells (murine), sequence (Q01705 19-2531): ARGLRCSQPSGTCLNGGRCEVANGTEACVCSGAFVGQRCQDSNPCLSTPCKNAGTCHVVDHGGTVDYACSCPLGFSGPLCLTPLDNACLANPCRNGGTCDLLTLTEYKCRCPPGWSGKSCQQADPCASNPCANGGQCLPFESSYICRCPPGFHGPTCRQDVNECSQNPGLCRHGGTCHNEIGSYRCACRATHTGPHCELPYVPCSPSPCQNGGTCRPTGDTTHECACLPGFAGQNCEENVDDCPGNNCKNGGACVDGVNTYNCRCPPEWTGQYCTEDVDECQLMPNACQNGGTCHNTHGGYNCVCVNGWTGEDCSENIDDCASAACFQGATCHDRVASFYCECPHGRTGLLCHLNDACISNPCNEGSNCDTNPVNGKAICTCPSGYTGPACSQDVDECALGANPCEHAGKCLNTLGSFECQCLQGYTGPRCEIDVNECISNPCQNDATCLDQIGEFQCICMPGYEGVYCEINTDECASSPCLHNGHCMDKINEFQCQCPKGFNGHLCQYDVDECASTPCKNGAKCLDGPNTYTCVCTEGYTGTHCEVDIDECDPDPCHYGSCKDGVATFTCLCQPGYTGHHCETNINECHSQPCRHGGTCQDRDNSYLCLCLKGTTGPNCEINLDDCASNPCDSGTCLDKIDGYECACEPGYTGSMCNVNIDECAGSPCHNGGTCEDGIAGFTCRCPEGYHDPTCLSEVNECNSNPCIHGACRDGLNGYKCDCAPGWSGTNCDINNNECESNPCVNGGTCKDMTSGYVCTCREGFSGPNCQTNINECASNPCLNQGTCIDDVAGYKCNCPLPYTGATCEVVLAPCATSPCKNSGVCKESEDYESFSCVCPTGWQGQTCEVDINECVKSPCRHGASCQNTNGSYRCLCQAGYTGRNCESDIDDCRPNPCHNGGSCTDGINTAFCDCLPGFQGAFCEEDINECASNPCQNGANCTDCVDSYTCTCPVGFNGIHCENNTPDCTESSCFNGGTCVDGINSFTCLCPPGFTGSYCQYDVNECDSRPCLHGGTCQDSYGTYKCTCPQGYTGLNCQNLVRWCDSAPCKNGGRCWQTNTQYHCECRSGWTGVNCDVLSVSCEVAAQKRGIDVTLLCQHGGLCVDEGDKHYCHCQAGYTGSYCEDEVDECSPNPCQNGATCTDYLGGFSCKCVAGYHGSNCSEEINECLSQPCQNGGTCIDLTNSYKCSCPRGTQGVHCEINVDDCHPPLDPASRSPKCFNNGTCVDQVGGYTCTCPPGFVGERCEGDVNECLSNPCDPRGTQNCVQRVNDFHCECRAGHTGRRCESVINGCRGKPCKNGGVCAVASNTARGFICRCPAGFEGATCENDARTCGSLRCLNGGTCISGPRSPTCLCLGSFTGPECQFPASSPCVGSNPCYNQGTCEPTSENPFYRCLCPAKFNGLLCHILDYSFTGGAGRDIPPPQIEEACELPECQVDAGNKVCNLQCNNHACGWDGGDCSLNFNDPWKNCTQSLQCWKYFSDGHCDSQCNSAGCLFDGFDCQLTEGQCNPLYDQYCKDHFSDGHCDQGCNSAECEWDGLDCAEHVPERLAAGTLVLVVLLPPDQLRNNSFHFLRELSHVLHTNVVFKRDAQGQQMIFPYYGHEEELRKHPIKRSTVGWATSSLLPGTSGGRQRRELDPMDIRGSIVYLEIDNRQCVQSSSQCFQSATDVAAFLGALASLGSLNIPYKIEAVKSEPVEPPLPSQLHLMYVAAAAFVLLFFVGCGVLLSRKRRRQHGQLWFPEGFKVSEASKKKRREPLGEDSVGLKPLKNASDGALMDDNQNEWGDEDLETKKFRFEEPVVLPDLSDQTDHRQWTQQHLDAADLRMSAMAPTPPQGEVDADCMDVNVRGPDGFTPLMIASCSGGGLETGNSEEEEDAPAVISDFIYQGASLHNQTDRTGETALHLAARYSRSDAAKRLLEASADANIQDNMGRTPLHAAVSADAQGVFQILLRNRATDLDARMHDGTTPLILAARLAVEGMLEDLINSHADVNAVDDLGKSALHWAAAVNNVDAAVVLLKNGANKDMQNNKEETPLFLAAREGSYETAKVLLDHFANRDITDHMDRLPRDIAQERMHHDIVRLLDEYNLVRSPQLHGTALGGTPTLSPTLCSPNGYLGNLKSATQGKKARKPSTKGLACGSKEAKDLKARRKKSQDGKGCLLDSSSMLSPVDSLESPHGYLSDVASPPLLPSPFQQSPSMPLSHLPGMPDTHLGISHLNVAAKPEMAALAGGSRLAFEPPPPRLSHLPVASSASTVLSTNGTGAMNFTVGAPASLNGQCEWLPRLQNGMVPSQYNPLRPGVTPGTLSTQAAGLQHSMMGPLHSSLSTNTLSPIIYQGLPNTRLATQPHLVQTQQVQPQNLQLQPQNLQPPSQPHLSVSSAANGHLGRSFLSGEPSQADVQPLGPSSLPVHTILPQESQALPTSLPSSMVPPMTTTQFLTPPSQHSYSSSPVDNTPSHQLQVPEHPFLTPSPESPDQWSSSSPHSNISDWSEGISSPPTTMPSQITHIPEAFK

Replating efficiency (FL Notch1 32D clones after 6 days on HS-27a with G-CSF): 190%
percent of full-length Notch1-expressing 32D cells mature by day 6 on HS-27a in G-CSF: 20%
percent of full-length Notch1-expressing 32D cells remaining undifferentiated by day 6 on HS-27a in G-CSF: 40%
Substance: human JAGGED1 (hJAGGED1) expressed on HS-27a human bone marrow stromal cells (from UniProt P78504 22-1218) (ligand)
